Test results: US20240301429A1 (RSEM LIMITED PARTNERSHIP, published 2024)

B3: SEMA3A-FC (R&D systems) (Fc fusion)
chain: YQNGKNNVPRLKLSYKEMLESNNVITFNGLANSSSYHTFLLDEERSRLYVGAKDHIFSFDLVNIKDFQKIVWPVSYTRRDECKWAGKDILKECANFIKVLKAYNQTHLYACGTGAFHPICTYIEIGHHPEDNIFKLENSHFENGRGKSPYDPKLLTASLLIDGELYSGTAADFMGRDFAIFRTLGHHHPIRTEQHDSRWLNDPKFISAHLISESDNPEDDKVYFFFRENAIDGEHSGKATHARIGQICKNDFGGHRSLVNKWTTFLKARLICSVPGPNGIDTHFDELQDVFLMNFKDPKNPVVYGVFTTSSNIFKGSAVCMYSMSDVRRVFLGPYAHRDGPNYQWVPYQGRVPYPRPGTCPSKTFGGFDSTKDLPDDVITFARSHPAMYNPVFPMNNRPIVIKTDVNYQFTQIVVDRVDAEDGQYDVMFIGTDVGTVLKVVSIPKETWYDLEEVLLEEMTVFREPTAISAMELSTKQQQLYIGSTAGVAQLPLHRCDIYGKACAECCLARDPYCAWDGSACSRYFPTAKRRTRRQDIRNGDPLTHCSDLHHDNHHGHSPEERIIYGVENSSTFLECSPKSQRALVYWQFQRRNEERKEEIRVDDHIIRTDQGLLLRSLQQKDSGNYLCHAVEHGFIQTLLKVTLEVIDTEHLEELLHKDDDGDGSKTKEMSNSMTPSQKVWYRDFMQLINHPNLNTMDEFCEQVWKRDRKQRRQRPGHTPGNSNKWKHLQENKKGRNRRTHEFERAPRSV
notes: Bought reagent; not shown: Fc portion of the bought fusion, detected with anti-human IgG

Columns and labels:
Experiment in all cases: saturation binding, trap coated on plate, SEMA3A-FC titrated, anti-human IgG-HRP chemiluminescence
[1] = target: B3
Description: (§1) Sema 3A and AP-VEGF₁₆₅ binding assays. Saturation curves for the determinations of KD of binding to SEMA 3A or VEGF165 were obtained as follow. Wells of high protein binding 96 well plates (Maxisorp, Nunc) were coated with purified traps diluted in PBS and blocked afterward with binding buffer (PBS containing 2% casein and 0.05% Tween 20). The SEMA3A-FC (R&D systems) or AP-VEGF165 ligands were diluted in binding buffer over an extensive range of concentrations and added to wells. Following an overnight incubation, wells were washed with PBS containing 0.05% tween. Bound SEMA3a-FC was detected using an HRP-linked anti-Human IgG (Biorad) and ECL substrate (Pierce). Alternatively, bound AP-VEGF165 was detected using CPD star substrate (Roche). The Chemiluminescent signal was acquired on a TECAN reader. Dissociation constant (KD) were determined by non-linear curve fitting using the Graph Pad prism software.

[2] = target: T1, NRP1 trap AC (human, UniProt O14786 22-856)
T1 construct: a1a2-b1b2-c with D320K (held in the entry); Signal peptide not trimmed
T1 sequence: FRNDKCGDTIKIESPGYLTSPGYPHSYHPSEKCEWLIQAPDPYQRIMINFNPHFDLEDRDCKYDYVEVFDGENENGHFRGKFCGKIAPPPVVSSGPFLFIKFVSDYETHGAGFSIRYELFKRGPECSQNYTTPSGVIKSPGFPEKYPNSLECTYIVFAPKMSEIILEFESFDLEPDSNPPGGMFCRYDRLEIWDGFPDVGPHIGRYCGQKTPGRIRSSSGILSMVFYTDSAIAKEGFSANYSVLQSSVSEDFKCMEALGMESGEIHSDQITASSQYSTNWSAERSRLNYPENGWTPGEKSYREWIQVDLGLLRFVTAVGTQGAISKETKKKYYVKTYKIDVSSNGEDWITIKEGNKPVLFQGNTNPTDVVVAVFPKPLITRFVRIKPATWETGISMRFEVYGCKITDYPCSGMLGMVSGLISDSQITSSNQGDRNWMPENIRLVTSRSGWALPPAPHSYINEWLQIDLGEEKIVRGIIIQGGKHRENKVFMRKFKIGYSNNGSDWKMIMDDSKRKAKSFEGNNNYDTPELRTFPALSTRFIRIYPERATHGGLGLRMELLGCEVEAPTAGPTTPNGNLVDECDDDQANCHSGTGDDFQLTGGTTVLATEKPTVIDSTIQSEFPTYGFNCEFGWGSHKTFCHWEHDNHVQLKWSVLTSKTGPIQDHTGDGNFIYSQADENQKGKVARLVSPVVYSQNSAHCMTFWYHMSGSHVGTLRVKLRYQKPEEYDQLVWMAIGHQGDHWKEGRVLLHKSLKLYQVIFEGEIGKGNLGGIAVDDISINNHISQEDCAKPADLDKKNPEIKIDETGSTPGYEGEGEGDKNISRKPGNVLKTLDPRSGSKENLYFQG
Description: as §1

[3] = target: T2, NRP1 trap G (human, UniProt O14786 22-856)
T2 construct: a1a2-b1b2-c; The mature trap lacks the signal peptide (about aa 1-21, may vary)
T2 sequence: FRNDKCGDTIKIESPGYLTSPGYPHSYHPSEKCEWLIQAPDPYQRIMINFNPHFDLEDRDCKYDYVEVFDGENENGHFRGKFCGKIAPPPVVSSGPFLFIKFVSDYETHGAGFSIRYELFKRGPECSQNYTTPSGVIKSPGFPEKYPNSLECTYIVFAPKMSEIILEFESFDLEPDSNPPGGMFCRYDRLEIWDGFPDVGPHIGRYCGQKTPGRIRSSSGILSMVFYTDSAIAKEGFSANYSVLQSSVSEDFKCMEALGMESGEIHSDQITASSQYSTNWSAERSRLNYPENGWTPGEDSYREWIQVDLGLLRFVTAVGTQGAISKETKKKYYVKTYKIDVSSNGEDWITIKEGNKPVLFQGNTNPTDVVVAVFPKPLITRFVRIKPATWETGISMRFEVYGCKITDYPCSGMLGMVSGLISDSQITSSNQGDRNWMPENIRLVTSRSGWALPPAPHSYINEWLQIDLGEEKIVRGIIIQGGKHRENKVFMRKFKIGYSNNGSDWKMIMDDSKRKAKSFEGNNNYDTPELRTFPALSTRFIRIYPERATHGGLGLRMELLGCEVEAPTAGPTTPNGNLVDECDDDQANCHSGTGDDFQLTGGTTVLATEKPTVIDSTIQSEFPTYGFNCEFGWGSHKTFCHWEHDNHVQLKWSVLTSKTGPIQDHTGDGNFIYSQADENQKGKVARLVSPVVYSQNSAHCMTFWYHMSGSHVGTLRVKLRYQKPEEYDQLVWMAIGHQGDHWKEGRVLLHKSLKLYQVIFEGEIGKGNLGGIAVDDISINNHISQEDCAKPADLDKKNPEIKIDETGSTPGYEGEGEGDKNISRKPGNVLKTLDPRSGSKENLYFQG
Description: as §1

[4] = target: T3, NRP1 trap R (human, UniProt O14786 22-856)
T3 construct: a1a2-b1b2-c with Y297A (the entry is the trap itself, so no substitution is applied)
T3 sequence: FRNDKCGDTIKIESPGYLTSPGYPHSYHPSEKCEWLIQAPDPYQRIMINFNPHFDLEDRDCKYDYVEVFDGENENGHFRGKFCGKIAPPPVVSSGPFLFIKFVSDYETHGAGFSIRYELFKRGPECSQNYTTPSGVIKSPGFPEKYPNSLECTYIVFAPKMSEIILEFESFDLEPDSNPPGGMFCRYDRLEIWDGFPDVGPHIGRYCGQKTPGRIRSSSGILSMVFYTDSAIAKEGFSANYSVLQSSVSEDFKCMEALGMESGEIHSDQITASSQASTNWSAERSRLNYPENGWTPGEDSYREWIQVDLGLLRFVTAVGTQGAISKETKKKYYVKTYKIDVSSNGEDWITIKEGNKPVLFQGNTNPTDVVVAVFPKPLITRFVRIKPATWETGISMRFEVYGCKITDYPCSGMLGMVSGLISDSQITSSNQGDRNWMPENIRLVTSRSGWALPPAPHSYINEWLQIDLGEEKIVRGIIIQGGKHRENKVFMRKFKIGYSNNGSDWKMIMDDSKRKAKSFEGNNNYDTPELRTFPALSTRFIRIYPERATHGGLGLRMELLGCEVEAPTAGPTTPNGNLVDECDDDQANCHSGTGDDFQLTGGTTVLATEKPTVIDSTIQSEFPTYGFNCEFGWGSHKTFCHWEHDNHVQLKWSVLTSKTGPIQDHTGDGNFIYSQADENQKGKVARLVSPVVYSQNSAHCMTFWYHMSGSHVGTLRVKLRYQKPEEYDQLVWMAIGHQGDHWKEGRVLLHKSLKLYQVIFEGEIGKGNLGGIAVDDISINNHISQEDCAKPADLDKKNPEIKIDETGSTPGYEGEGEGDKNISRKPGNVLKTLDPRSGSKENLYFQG
Description: as §1

B1: NRP1 trap X (receptor)
chain: FRNDKCGDTIKIESPGYLTSPGYPHSYHPSEKCEWLIQAPDPYQRIMINFNPHFDLEDRDCKYDYVEVFDGENENGHFRGKFCGKIAPPPVVSSGPFLFIKFVSDYETHGAGFSIRYELFKRGPECSQNYTTPSGVIKSPGFPEKYPNSLECTYIVFAPKMSEIILEFESFDLEPDSNPPGGMFCRYDRLEIWDGFPDVGPHIGRYCGQKTPGRIRSSSGILSMVFYTDSAIAKEGFSANYSVLQSSVSEDFKCMEALGMESGEIHSDQITASSQASTNWSAERSRLNYPENGWTPGEDSYREWIQVDLGLLRFVTAVGTQGAISKETKKKYYVKTYKIDVSSNGEDWITIKEGNKPVLFQGNTNPTDVVVAVFPKPLITRFVRIKPATWETGISMRFEVYGCKITDYPEVEAPTAGPTTPNGNLVDECDDDQANCHSGTGDDFQLTGGTTVLATEKPTVIDSTIQSEFPTYGFNCEFGWGSHKTFCHWEHDNHVQLKWSVLTSKTGPIQDHTGDGNFIYSQADENQKGKVARLVSPVVYSQNSAHCMTFWYHMSGSHVGTLRVKLRYQKPEEYDQLVWMAIGHQGDHWKEGRVLLHKSLKLYQVIFEGEIGKGNLGGIAVDDISINNHISQEDCAKPADLDKKNPEIKIDETGSTPGYEGEGEGDKNISRKPGNVLKTLDPRSGSKENLYFQG
notes: a1a2-b1-c with Y297A (held in the entry); Signal peptide not trimmed
B1: no binding [1].

B2: NRP1 trap AF (receptor)
chain: FRNDKCGDTIKIESPGYLTSPGYPHSYHPSEKCEWLIQAPDPYQRIMINFNPHFDLEDRDCKYDYVEVFDGENENGHFRGKFCGKIAPPPVVSSGPFLFIKFVSDYETHGAGFSIRYELFKRGPECSQNYTTPSGVIKSPGFPEKYPNSLECTYIVFAPKMSEIILEFESFDLEPDSNPPGGMFCRYDRLEIWDGFPDVGPHIGRYCGQKTPGRIRSSSGILSMVFYTDSAIAKEGFSANYSVLQSSVSEDFKKITDYPCSGMLGMVSGLISDSQITSSNQGDRNWMPENIRLVTSRSGWALPPAPHSYINEWLQIDLGEEKIVRGIIIQGGKHRENKVFMRKFKIGYSNNGSDWKMIMDDSKRKAKSFEGNNNYDTPELRTFPALSTRFIRIYPERATHGGLGLRMELLGCEVEAPTAGPTTPNGNLVDECDDDQANCHSGTGDDFQLTGGTTVLATEKPTVIDSTIQSEFPTYGFNCEFGWGSHKTFCHWEHDNHVQLKWSVLTSKTGPIQDHTGDGNFIYSQADENQKGKVARLVSPVVYSQNSAHCMTFWYHMSGSHVGTLRVKLRYQKPEEYDQLVWMAIGHQGDHWKEGRVLLHKSLKLYQVIFEGEIGKGNLGGIAVDDISINNHISQEDCAKPADLDKKNPEIKIDETGSTPGYEGEGEGDKNISRKPGNVLKTLDPRSGSKENLYFQG
notes: a1a2b2c, deleted aa 281-430 and 857-923; The mature column prints 'About 22-429 and 431-856', against 1-280 and 431-856 in the column with signal peptide; Signal peptide not trimmed
B2: no binding [1].

For B3, the Kd [2] was 4 nM, the Kd [3] was 0.8 nM and the Kd [4] was 6.15 nM.
